In assay [1] the target is Thyroid Stimulating Hormone (TSH) (UniProt P01215). The assay is described as follows: FRET competition on Alexa488-labelled antigen; competitor BHQ-labelled M4.
For assay [2] the target is unchanged. Kind of assay: i-STAT sandwich cartridge with TSH; capture beads TSH Ab 544, detection conjugate T25C.
Assay [3] has the same target. The assay is described as follows: FRET competition on Alexa488-labelled antigen; competitor BHQ-labelled ME130.
Assay [4] has the same target. Kind of assay: FRET competition on Alexa488-labelled antigen; competitor BHQ-labelled TSH Ab 544.
Assay [5] concerns the target Luteinizing Hormone (LH) (UniProt P01215). Kind of assay: FRET quenching titration, BHQ-10 antibody and Alexa Fluor 488 antigen.
The target of assay [6] is Thyroid Stimulating Hormone (TSH) (UniProt P01215). The assay is described as above.
The target in assay [7] is Chorionic Gonadotropin (CG) (UniProt P01215). The description is as above.
Assay [8] deals with Follicle Stimulating Hormone (FSH) (UniProt P01215). The description is as above.
Assay [9] addresses Thyroid Stimulating Hormone (TSH) (UniProt P01215). Kind of assay: FRET competition on Alexa488-labelled antigen; competitor BHQ-labelled 414B.
The target in assay [10] is Chorionic Gonadotropin (CG) (UniProt P01215). Kind of assay: i-STAT sandwich cartridge, 0.4 mIU/L TSH plus CG, signal gain over TSH alone; capture 94544, detection 414B.
Assay [11] addresses Thyroid Stimulating Hormone (TSH) (UniProt P01215). The assay is described as follows: FRET competition on Alexa488-labelled antigen; competitor BHQ-labelled 5409.
Assay [12] shares this target. The assay is described as follows: i-STAT sandwich cartridge with TSH; capture beads TSH Ab 544, detection conjugate 5409. Note: test concentration or dose not given here.
Assay [13] shares this target. The assay is described as follows: FRET competition on Alexa488-labelled antigen; competitor BHQ-labelled T25C.
For assay [14] the target is unchanged. Kind of assay: i-STAT sandwich cartridge with TSH; capture beads TSH Ab 544, detection conjugate M4. Note: test concentration or dose not given here.
Assay [15] concerns the target Follicle Stimulating Hormone (FSH) (UniProt P01215). Kind of assay: i-STAT sandwich cartridge, 0.4 mIU/L TSH plus FSH, signal gain over TSH alone; capture 94544, detection 414B.
Assay [16] deals with Luteinizing Hormone (LH) (UniProt P01215). The assay is described as follows: i-STAT sandwich cartridge, 0.4 mIU/L TSH plus LH, signal gain over TSH alone; capture 94544, detection 414B.
In assay [17] the target is Thyroid Stimulating Hormone (TSH) (UniProt P01215). Kind of assay: i-STAT sandwich cartridge with TSH; capture beads TSH Ab 544, detection conjugate 414B. Note: test concentration or dose not given here.
The target is the same in assay [18]. Kind of assay: i-STAT sandwich cartridge with TSH; capture beads TSH Ab 544, detection conjugate ME130. Note: test concentration or dose not given here.

pKd: −log10 of the molar value.

“TSH Ab 544 (Abbott Diagnostics Division) (antibody)”: the relative fluorescence in [1] worked out at 0.92 normalized; in assay [3] it was 0.72 normalized; in assay [4], 1 normalized; in [9], 0.89 normalized; in assay [11], 0.96 normalized; in assay [13], 0.71 normalized. The electrochemical current in [2] stood at 22.4 nA; in assay [12], 7.98 nA; in assay [14] it was 0.11 nA; in [17], 25 nA; in assay [18], 34.9 nA. Further, the pKd with Luteinizing Hormone (LH) [5] was 6.00; in [6] it was 8.88; in [7], 6.68; in assay [8], 6.00. In addition, in [10], the CG CR (%) is 117%. The FSH CR (%) in assay [15] was found to be 7.15%. Further, the LH CR (%) in the assay with Luteinizing Hormone (LH) [16] came to 11.8%.

As usually defined, the pKd is −log10 of the Kd, conventionally taken in molar units.

The values are drawn from US9575076.
